Measurements reported in patent publication US12214008B2, “Protein interfaces” (SyntheX, Inc., priority 2016, dated 2025).

How the values were obtained:
Type in all cases: binding
Design in all cases: key: cells having the interaction would survive (+); cells not having the interaction would die (−) on selective media (−ADE, −HIS)
D.rerio Rad51 = assay: Y2H assay RAD51/SEQ ID NO.: 5 pair
Procedure: RAD51-binding peptides were tested for ability to bind RAD51 of several different species using a “conventional” Y2H assay, where interaction between the two-hybrid pair drove expression of ADE2 and HIS genes.

G.gallus Rad51 = target: T1, G.gallus Rad51 (Gallus gallus, UniProt P37383); assay: Y2H assay RAD51/SEQ ID NO.: 5 pair
T1 construct: expressed in transfected cells
T1 sequence (P37383 1-339): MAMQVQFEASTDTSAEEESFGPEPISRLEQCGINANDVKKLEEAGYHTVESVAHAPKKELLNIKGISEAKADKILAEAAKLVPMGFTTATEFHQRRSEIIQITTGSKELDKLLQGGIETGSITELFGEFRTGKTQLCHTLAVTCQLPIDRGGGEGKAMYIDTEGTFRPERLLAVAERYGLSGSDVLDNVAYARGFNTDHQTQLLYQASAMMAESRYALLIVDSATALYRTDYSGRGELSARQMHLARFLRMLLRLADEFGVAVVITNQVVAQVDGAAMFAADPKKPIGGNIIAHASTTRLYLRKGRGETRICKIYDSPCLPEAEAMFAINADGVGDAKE
Procedure: (§1) RAD51-binding peptides were tested for ability to bind RAD51 of several different species using a “conventional” Y2H assay, where interaction between the two-hybrid pair drove expression of ADE2 and HIS genes. In this Y2H assay the two-hybrid pair was RAD51 and the compound 5 peptide sequence (SEQ ID NO.: 5), so that cells having the interaction would survive (+) and cells not having the interaction would die (−) on selective media (−ADE, −HIS).

K.lactis Rad51 = assay: Y2H assay RAD51/SEQ ID NO.: 5 pair
Procedure: as §1

K.pastoris Rad51 = assay: Y2H assay RAD51/SEQ ID NO.: 5 pair
Procedure: as §1

S.cerevisiae Rad51 = target: T2, S.cerevisiae Rad51 (Saccharomyces cerevisiae, UniProt P25454); assay: Y2H assay RAD51/SEQ ID NO.: 5 pair
T2 construct: expressed in transfected cells
Procedure: as §1

S.pombe Rad51 = target: T3, S.pombe Rad51 (Schizosaccharomyces pombe, UniProt P36601); assay: Y2H assay RAD51/SEQ ID NO.: 5 pair
T3 construct: expressed in transfected cells
T3 sequence (P36601 whole entry, looked up): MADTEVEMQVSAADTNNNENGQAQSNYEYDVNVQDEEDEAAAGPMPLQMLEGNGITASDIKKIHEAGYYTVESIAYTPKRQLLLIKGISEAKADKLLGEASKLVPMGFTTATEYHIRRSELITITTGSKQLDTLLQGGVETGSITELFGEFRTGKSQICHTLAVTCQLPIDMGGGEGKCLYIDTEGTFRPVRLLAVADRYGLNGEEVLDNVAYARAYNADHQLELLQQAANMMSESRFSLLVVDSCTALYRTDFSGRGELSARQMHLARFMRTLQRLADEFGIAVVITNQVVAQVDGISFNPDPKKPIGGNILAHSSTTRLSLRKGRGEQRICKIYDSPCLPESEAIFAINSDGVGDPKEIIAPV
Procedure: as §1

[1] = target: T4, S.cerevisiae Rad51 (1-226) + H.sapiens Rad51 (168-339) (UniProt P25454+Q06609); assay: Y2H assay, RAD51 hybrid constructs
T4 construct: S.cerevisiae Rad51 (1-226) +; H.sapiens Rad51 (168-339); expressed in transfected cells
Procedure: as §1
(§2) Based on sequence comparisons of S. cerevisiae and H. sapiens RAD51, multiple cerevisiae-sapiens hybrid constructs of RAD51 were constructed and tested for their ability to bind RAD51-binding peptide in the same RAD51/SEQ ID NO.: 5 hybrid system described above.

[2] = target: T5, S.cerevisiae Rad51 (1-250) + H.sapiens Rad51 (190-339) (UniProt P25454+Q06609); assay: Y2H assay, RAD51 hybrid constructs
T5 construct: S.cerevisiae Rad51 (1-250) +; H.sapiens Rad51 (190-339); expressed in transfected cells
Procedure: as §1, §2

[3] = target: T6, S.cerevisiae Rad51 (1-278) + H.sapiens Rad51 (218-339) (UniProt P25454+Q06609); assay: Y2H assay, RAD51 hybrid constructs
T6 construct: S.cerevisiae Rad51 (1-278) +; H.sapiens Rad51 (218-339); expressed in transfected cells
T6 sequence (P25454 1-278): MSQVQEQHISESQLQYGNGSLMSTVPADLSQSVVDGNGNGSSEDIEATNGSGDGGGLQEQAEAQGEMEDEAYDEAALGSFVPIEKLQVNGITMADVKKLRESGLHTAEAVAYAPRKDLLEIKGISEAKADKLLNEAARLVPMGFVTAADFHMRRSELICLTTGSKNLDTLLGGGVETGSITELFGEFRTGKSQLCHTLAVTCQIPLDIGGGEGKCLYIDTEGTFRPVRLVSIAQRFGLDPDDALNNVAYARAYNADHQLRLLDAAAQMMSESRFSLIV
T6 sequence (Q06609 218-339): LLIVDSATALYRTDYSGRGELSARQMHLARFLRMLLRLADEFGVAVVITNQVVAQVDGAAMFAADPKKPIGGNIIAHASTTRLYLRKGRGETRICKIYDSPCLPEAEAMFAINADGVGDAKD
Procedure: as §1, §2

T2 sequence (P25454 whole entry): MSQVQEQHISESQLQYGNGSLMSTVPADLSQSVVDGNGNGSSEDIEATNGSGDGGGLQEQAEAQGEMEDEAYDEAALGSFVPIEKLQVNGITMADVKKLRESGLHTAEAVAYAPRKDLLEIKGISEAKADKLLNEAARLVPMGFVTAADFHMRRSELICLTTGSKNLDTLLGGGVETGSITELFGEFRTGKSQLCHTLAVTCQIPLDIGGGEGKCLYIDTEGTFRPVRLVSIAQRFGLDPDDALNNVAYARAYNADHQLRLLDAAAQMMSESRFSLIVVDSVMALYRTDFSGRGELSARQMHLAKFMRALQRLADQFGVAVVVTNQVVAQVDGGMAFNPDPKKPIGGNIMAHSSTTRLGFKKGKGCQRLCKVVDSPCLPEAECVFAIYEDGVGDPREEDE
T5 sequence (Q06609 190-339, one chain of several): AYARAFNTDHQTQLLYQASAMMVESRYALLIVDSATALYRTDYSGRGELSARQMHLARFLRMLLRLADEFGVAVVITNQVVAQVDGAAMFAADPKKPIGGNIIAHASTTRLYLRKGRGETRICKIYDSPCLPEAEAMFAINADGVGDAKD
T4 sequence (Q06609 168-339, one chain of several): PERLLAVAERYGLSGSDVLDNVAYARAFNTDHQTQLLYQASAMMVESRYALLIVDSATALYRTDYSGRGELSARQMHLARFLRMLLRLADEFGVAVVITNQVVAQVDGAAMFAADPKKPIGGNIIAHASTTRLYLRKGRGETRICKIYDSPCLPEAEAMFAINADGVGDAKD

KRRRRRRRKRLGVRLRVSRML [SEQ ID NO.: 5]
Compound 5 Sequence Binding (D.rerio Rad51): + | Compound 5 Sequence Binding (G.gallus Rad51): + | Compound 5 Sequence Binding (K.lactis Rad51): − | Compound 5 Sequence Binding (K.pastoris Rad51): + | Compound 5 Sequence Binding (S.cerevisiae Rad51): − | Compound 5 Sequence Binding (S.pombe Rad51): + | SEQ ID NO.: 5 Binding [1]: + | SEQ ID NO.: 5 Binding [2]: + | SEQ ID NO.: 5 Binding [3]: −
